# B1: No. 10: DATAS fragment; transferrin receptor (p90, CD71); novel exon (nucleic acid, listed as Homo sapiens)
# DNA: GTGGCGAGGCGGTTCGGGACGGAGGACGCGCTAGTGTTCTTCTGTGTGGCAGTTCAGAATGATGGATCAAGCTAGATCAGCATTCTCTAACTTGTTTGGTGGAGAACCATTGTCATATACCCGGTTCAGCCTGCTCTCC
# B2: No. 6: DATAS fragment; transmembrane protease, serine 2; exon extension (nucleic acid, listed as Homo sapiens)
# DNA: GCCGAGGTCTTCCCTAAGGACAGGGAGACTTGTTGAGCTCCCAGTGTTGCCTGCAGCTCTCGCAGGGAGAGCACACTTCCCTCCCTGAGACCTCCACACGCACTACACAGATGGTCACAGCCCTATTCTCCAGCCCTGCCCCCGTCAGCTCATCCCAGCACCAACCCCTCTCCTGGGAAACCTGGATTCTCCTTACAACTGGCGGTGCCTGTGCTGAATGCAGCTCTGGAGTTCAGCTTCAGGGAAAGAAATTCCCAGCTCTGAAACTATAGGGCTCTATCAGTGCCATGGAATCCCCCTCTTATTCACCCAACGGCTTGGTTCTGCTGAACCAATTTCCCACTCCTCACTGAACCCCACCCAGGACACACAGGCGCCTGTTTCCCCTCTGGCATGCACACACTCTTCTGGAGCACACGCGACCCTCCCTAGGCCGCCTGCTTCTCGGCTCCCCTGCACA
# B3: No. 9: DATAS fragment; protein kinase C, zeta; novel exon (nucleic acid, listed as Homo sapiens)
# DNA: GGGCAAAGGATGTTGCCCCTGTCCTGAAGGCTGTCGCCCGATCGCTCTATCCAAGGCTGCCCTGGGGCAGCGTCACCTGGGGGTCCTGCGGGGGCTTCTCAGCACAGCATCCAGCACTGCCACCTAGTGTGTTCCCGTCACGTCTCCTCCCCCCG
# B4: No. 5: DATAS fragment; N-acetyltransferase 6; exon extension (nucleic acid, listed as Homo sapiens)
# DNA: GTAAAGGCATGTGGAATCCAGGGGCAGCTTTGGCTGGCACGCAGGATCCAGAGTCAGCTCAGCTGGGCTGGTACTCAGGATCAGCTCCATCCGGTGTGTAGGGTCTAGTGTAGGGGTCAGCTTGGCTGGGCCAGGGCTCAGAGTCAGCTCTTGCCTATGCACAGGATCCAGGTTCAGCTGAGTCAGGCTGGGAGCCAAGGTCACCTGCTGCTAGGTTGCAGGTGGCTCAGTGCCAGGCTGGAGGTTAAGACCCCAGTCTCCAGGCAGTAGCATCTCTTCAGACCACAGTGGCTCTCCTCATGTTGATGCTGGCCTCTGGGATGTTCCGCGTCCTAGCTCCGCACAGCTGGGTATCTCACTCAGTCGCCACCTCGGCCTCCCAACA
# B5: No. 11: DATAS fragment; cadherin-like 23; novel exon (nucleic acid, listed as Homo sapiens)
# DNA: GACACCCTAGCTGCAAGGGAGGTTAGAAAAAATGAGGGACAGGATTATCATGGTCAGCATATTACTTGGGGGCCAGATATATCACTTCCCACACAAAAGCAGGCCTCTGTCAGTGAGGAAGAAGTGGAGAATGGATTTGGGGTGGGCATCTGACAGCATTTGCCACACTGCCCTCCCCAATCCTAATGCAGGCCAGTCAACGCACCACCCCCACTCCCCACCCACACTCCAACCCCCACAGTCCTAGGGTCTCTCAGGGAGACCATCGGTGGAATCCATAACATTCTAAGACCCTGCAGTTTGTAGGCAAAATCAGGCTTCCTTTGGGTGCCCCCG
# B6: No. 8: DATAS fragment; ataxin 2-like; exon extension (nucleic acid, listed as Homo sapiens)
# DNA: GTAGCAGGGCAGCAGACTTGGGAGAACGCGGGGGATACATCCGGCCCACTGGAAGAAAAGGGGGAGCTGTAGGATGGTTACTGCTGGTCAACAGCAGTGAGTACAAGGGCCTTACTCAAAACAGCAAGAAAGTTTACACACTATACAACCAGAGTCACCAACTTAAATGTCTAGAAGCTCAAGGCAGGTAACACAAGCAGGTAAATGGCCTCATGGGCATCATCGACAACTGGAATGCTTAAAGGAGTGGCAGGGATTCTGTTCCAGTCAACTCAAGCTACGCAGCAAGGCAAGCTCAGTTGACAGAATTTCCTGTAATTCAAAAGAAACTAAAAATTTTCTATGGCTTCTATTGATTTATTTATTTAGAGACAGGGTATCGCTCTGTTCCCC
# Tested on: HLA class I (e.g. HLA-A2) expressing adherent 293T cells
# Assay: CTL assay on reverse transfected microarray (caspase activation, fluorescent Z-VAD)
# Format: cell-based, human
# Conditions: HLA-matched CD8+ T cells from prostate cancer patients incubated 4 hours on array; red fluorescent signal = positive response
# Source text: Additional patient samples were procured for the cytotoxic T Lymphocyte (CTL) assay. […] (PBMC) were isolated from blood drawn from patients with relevant clinical parameters, and with patient consent. Clinical data generally included patent history, physiopathology, and parameters relating to prostate cancer physiology. PBMCs were collected from 6 prostate cancer patients that met the study requirements. Duplicate samples were obtained from a single patient.
# The 192 selected DATAS fragments were PCR amplified out of the library vector and directionally cloned into a eukaryotic expression vector down stream from staggered start site initiation codons. This configuration allows the DATAS fragment to be expressed in all the open reading frames, which is required because the correct reading frame is not always readily apparent.
# Plasmid preparations were performed and the expression vectors containing the selcted DATAS fragment clones were re-arrayed into 96 well plates, which were subsequently used to spot glass slides for use in the CTL assay previously disclosed in International Patent Application No. PTC/US2005/032392, the disclosure of which is incorporated by reference in its entirety.
# A design file containing the desired microarray positions of the DATAS expression vectors was uploaded into a high resolution scanner. The expression vectors containing the DATAS fragments were mixed with gelatin and lipofectamine and then spotted in duplicate in a pattern that matched the design file uploaded into the high resolution microarray scanner. The following positive controls, negative controls and experimental samples were spotted on the array.
# The spotted arrays were then overlaid with HLA class I (e.g. HLA-A2) expressing adherent 293T cells and cultured for 48-72 hours to allow cells time to express vector-encoded transcripts.
# The assay for CTL reactivity was then performed by incubating HLA-matched CD8^+ T cells from normal and prostate cancer patients on cultured reverse transfected microarray slides for 4 hours. Prior to incubation with the array, T cells from normals or patients may need to be expanded in vitro, to a small or large extent, to enhance the frequency of responding T cells. An inhibitor of activated caspase, fluorescence-tagged (sulfo-Rhodamine)-Z-VAD, is present throughout the cell incubation to bind caspases that become activated when antigen expressing adherent cells on certain spots are induced to die by the CTL. The slides are then washed to remove unbound fluorescent Z-VAD and 2-color (Green and Red) fluorescence images of the microarray slides are obtained with the microarray scanner.
# Analysis and confirmation of data is then determined by visual inspection of the scanned image. The success of the reverse transfection is evaluated by observing green fluorescence at EGFP vector control spots. Then the fluorescence threshold(s) are adjusted on microarray scanner as necessary to establish relevant background and positive control signal intensities. […] Using the coordinate locations for the spots, the cDNAs yielding positive responses are identified.
row,Molecule,Patient ID with positive hit
1,B1,MSMPB
2,B2,EYGRT
3,B3,EYGRT
4,B4,EYGRT
5,B5,MSMPB; P72
6,B6,MSMPB

# — patent US20120141376A1, “PROSTATE SPECIFIC TRANSCRIPTS AND THE USE THEREOF FOR PROSTATE CANCER THERAPEUTICS AND DIAGNOSTICS” (priority 2006, published 2012)
